Assay results: paper PMC5887438 (Nucleic Acids Research, 2018)

Biological target: C. crescentus σ70 domain 2 (σ70_2, residues 128-487) (Caulobacter crescentus, UniProt P52324 127-486)
Test: crystal structure

Chain of C. crescentus σ70 domain 2 (σ70_2, residues 128-487) (P52324 127-486): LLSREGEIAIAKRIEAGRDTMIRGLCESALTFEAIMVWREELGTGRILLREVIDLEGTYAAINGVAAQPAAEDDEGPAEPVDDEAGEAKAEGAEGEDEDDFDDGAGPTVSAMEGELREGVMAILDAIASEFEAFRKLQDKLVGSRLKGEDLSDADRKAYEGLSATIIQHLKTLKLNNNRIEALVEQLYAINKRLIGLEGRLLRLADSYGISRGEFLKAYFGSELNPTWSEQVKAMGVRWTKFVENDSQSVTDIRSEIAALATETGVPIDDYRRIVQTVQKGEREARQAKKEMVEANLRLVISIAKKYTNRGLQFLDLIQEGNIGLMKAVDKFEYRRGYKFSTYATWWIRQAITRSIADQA

B1: C. crescentus GcrA-SID (residues 88-173) (domain or fragment, Caulobacter crescentus, UniProt A0A0H3C9J4 88-173, looked up)
chain: VPVAAAPAPLPAFRHEEPGSATVLTLGAHMCKWPIGDPSSEGFTFCGRRSSEGPYCVEHARVAYQPQQTKKKSGGAELARSLRRYI
In the case of B1, the “stoichiometry N” value is reported as 1.
